Consider five molecules from US20080063646A1 (AbbVie / Abbott, published 2008).

The target of experiment [1] is T1, recombinant human IP-10 (R&D Systems) (human, UniProt P02778 22-98).
T1 construct: Bought recombinant protein; also called CXCL10; rhIP-10
T1 sequence: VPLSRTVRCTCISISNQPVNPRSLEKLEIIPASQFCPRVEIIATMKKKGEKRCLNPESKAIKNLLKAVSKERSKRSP
Description: Biacore. In general terms: SPR reads the build-up and loss of mass on a sensor chip optically.

For experiment [2], the target named is T1, recombinant human IP-10 (R&D Systems). In words: cell-based or functional assay.
For experiment [3], the target named is T2, B lymphocyte chemokine (BLC) (UniProt O43927 23-109, limits assumed).
T2 sequence (looked up): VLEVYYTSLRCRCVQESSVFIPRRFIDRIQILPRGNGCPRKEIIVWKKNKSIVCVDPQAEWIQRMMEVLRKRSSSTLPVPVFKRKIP
In words: ELISA with hybridoma supernatants. (In general: ELISA stands for enzyme-linked immunosorbent assay.)

Where “and” joins values, the source holds several entries; their conditions need not be identical. Identical values can stand only once.

B1: HuAIP12 G104A variant antibody (antibody, V domains shown)
VH: EVQLVQSGAEVKKPGATVKISCKVSGYTFTDYSMHWVRQAPGKGLKWMGWINTETGEPTYADDFKGRFTFTLDTSTSTAYMELSSLRSEDTAVYYCARNYDYDAYFDVWGQGTTVTVSS
VL: DIQMTQSPSSLSASVGDRVTITCKASQDINKYIAWYQQKPGKAPKLLIHYTSTLQPGIPSRFSGSGSGRDYTFTISSLQPEDIATYYCLQYDNLLFTFGQGTKLEIK
notes: Human gamma-1 / kappa, transiently expressed in 293-H cells
In the case of B1, in experiment [1], the “fold faster off-rate (kd) than unmodified HuAIP12” value was approximately 2 fold, the “fold higher Kd than unmodified HuAIP12” value is more than 20 fold, the “fold slower on-rate (ka) than unmodified HuAIP12” value was approximately 10 fold and the “fold weaker monovalent interaction than unmodified HuAIP12” value is 20 fold.

B2: humanized monoclonal antibody HuAIP12 (antibody, IgG1, V domains shown)
VH: EVQLVQSGAEVKKPGATVKISCKVSGYTFTDYSMHWVRQAPGKGLKWMGWINTETGEPTYADDFKGRFTFTLDTSTSTAYMELSSLRSEDTAVYYCARNYDYDGYFDVWGQGTTVTVSS
VL: DIQMTQSPSSLSASVGDRVTITCKASQDINKYIAWYQQKPGKAPKLLIHYTSTLQPGIPSRFSGSGSGRDYTFTISSLQPEDIATYYCLQYDNLLFTFGQGTKLEIK
Consider B2, for which, in experiment [2], the “IC50 of inhibition of chemotaxis, donor 215” value (shortened to “IC50 of inhibition … donor 215”) is 142 ng/mL; the “IC50 of inhibition of chemotaxis, donor 318” value (“IC50 of inhibition … donor 318” below) is 38 ng/mL; the “IC50 of inhibition of chemotaxis, donor 1012” value turned out to be 73 ng/mL.

B3: humanized monoclonal antibody HuAIP13 (antibody, IgG1, V domains shown)
VH: EVQLVQSGAEVKKPGATVKISCKVSGYTFTDYSMHWVRQAPGKGLKWMGWINTEIGEPTYADDFKGRFTFTLDTSTSTAYMELSSLRSEDTAVYYCARNYDYDAYFDVWGQGTTVTVSS
VL: DIQMTQSPSSLSASVGDRVTITCKADQDINKYIAWYQQKPGKAPKLLLHHTSTLQPGIPSRFSGSGSGRDYTFTISSLQPEDIATYYCLQYDSLLFTFGQGTKLEIK
With B3, in experiment [2], the “IC50 of inhibition … donor 215” value is 139 ng/mL; the “IC50 of inhibition … donor 318” value came to 45 ng/mL; the “IC50 of inhibition of chemotaxis, donor 1012” value came out at 77 ng/mL.

B4: murine monoclonal antibody AIP12 (antibody, V domains shown)
VH: QIQLVQSGPELKKPGETVKISCKASGYTFTDYSMHWVKQAPGKGLKWMGWINTETGEPTYADDFKGRFAFSLETSASTAYLQINNLKNEDTATYFCARNYDYDGYFDVWGAGTTVTVSS
VL: DIQMTQSPSSLSASLGGKVTITCKASQDINKYIAWYQHKPGKGPRLLIHYTSTLQPGIPSRFSGSGSGRDYSFSISNLEPEDIATYYCLQYDNLLFTFGSGTKLEIK
notes: Mouse hybridoma antibody; Mouse IgG1/kappa is used as its isotype control; also called MuAIP12; MUAIP12
Take B4: the binding result in experiment [3] is given as “no binding”. In experiment [2], the “IC50 of inhibition … donor 215” value amounted to 130 ng/mL; the “IC50 of inhibition … donor 318” value was determined as 41 ng/mL; the “IC50 of inhibition of chemotaxis, donor 1012” value is 91 ng/mL; the “IC50 of inhibition of chemotaxis, donor 1022” value is 135 ng/mL and 51 ng/mL and 86 ng/mL.

B5: murine monoclonal antibody AIP13 (antibody, V domains shown)
VH: QIQLVQSGPELKKPGETVKISCKASGYTFTDYSMHWVKQAPGKGLKWMGWINTEIGEPTYADDFKGRFAFSLETSASTAYLQINNLKNEDTATYFCARNYDYDAYFDVWGAGTTVTVSS
VL: DIQMTQSPSSLSASLGGKVTITCKADQDINKYIAWYQHKPGRGPRLLLHHTSTLQPGIPSRFSGSGSGRDYSFSISNLEPADIATYYCLQYDSLLFTFGSGTKLEIK
notes: Mouse hybridoma antibody; Mouse IgG1/kappa is used as its isotype control; also called MuAIP13
For B5, in experiment [3], the binding result is recorded as “no binding”. In addition, in experiment [2], the “IC50 of inhibition … donor 215” value is 260 ng/mL; the “IC50 of inhibition … donor 318” value worked out at 139 ng/mL; the “IC50 of inhibition of chemotaxis, donor 1012” value is 84 ng/mL; the “IC50 of inhibition of chemotaxis, donor 1022” value was 229 ng/mL and 154 ng/mL and 78 ng/mL.
